Test results published in US20220251236A1 (Boehringer Ingelheim, published 2022).

T1: EGF1+2
T1 construct: also called Hu DLL3 EGF1+2 on HEK293 cells
T1 membrane-anchored DLL3 subdomain construct: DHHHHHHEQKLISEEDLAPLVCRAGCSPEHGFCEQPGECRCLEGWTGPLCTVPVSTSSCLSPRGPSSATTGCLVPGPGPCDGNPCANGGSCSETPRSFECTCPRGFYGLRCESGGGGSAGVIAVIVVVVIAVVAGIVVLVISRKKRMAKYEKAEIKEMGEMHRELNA

T2: EGF2+3
T2 construct: also called Hu DLL3 EGF2+3 on HEK293 cells
T2 membrane-anchored DLL3 subdomain construct: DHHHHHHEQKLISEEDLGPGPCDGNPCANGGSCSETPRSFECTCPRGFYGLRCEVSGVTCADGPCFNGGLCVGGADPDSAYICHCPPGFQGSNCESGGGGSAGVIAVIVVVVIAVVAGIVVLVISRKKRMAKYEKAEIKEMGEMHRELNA

T3: EGF5+6
T3 construct: also called Hu DLL3 EGF5+6 on HEK293 cells
T3 membrane-anchored DLL3 subdomain construct: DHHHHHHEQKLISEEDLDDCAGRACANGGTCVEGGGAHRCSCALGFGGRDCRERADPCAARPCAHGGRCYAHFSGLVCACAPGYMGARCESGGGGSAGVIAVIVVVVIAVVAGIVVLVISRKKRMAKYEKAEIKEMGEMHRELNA

T4: EGF6+MEMBRANE PROXIMAL PEPTIDE
T4 construct: also called Hu DLL3 EGF6+membrane proximal peptide on HEK293 cells
T4 membrane-anchored DLL3 subdomain construct: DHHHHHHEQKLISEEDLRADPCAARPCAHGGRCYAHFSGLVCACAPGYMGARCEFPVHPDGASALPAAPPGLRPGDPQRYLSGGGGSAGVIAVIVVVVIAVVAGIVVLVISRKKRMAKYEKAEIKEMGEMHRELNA

T5: EGF4+5
T5 construct: also called Hu DLL3 EGF4+5 on HEK293 cells
T5 membrane-anchored DLL3 subdomain construct: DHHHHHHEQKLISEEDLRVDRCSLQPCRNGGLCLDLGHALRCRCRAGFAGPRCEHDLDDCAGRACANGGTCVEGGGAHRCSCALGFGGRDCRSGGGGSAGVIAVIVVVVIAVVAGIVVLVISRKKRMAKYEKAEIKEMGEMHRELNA

T6: Human DLL3-His (human, UniProt Q9NYJ7 27-492)
T6 construct: also called huDLL3-His; hu DLL3
T6 sequence: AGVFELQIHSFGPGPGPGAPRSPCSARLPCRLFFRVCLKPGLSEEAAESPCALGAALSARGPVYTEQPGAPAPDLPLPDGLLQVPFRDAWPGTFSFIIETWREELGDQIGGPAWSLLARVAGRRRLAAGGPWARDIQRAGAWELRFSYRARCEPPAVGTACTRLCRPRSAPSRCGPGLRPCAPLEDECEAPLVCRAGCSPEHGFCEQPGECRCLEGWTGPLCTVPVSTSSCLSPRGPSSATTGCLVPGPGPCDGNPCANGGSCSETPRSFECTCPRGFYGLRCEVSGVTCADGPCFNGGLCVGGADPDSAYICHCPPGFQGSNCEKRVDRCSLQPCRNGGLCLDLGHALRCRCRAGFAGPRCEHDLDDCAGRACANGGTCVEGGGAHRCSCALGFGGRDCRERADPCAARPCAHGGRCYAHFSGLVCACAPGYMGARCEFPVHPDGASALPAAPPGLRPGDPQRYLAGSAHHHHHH

T7: EGF3+4
T7 construct: also called Hu DLL3 EGF3+4 on HEK293 cells
T7 membrane-anchored DLL3 subdomain construct: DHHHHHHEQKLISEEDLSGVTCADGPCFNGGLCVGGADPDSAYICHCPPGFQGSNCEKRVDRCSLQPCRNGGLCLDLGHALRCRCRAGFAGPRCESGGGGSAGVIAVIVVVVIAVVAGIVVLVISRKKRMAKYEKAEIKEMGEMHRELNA

B1: DLL3#8/CD3#1 (bispecific antibody, human IgG1, kappa, lambda, L234A L235A)
chain 1: not shown
chain 2: EAVVTQEPSLTVSPGGTVTLTCRSSTGAVTTSNYANWVQEKPGQLPRGLIGGTNKRAPWVPARFSGSLLGGKAALTLSGAQPEDEAEYFCALWYSNLWVFGGGTKLTVLGQPKAAPSVTLFPPSSEELQANKATLVCLISDFYPGAVKVAWKADGSPVNTGVETTTPSKQSNNKYAASSYLSLTPEQWKSHRSYSCQVTHEGSTVEKTVAPAECSGGGGSEGKSSGSGSESKSTEGKSSGSGSESKSTGGGGSEVQLVESGGGLVQPGGSLKLSCAASGFTFNTYAMNWVRQAPGKGLEWVARIRSKYNNYATYYADSVKDRFTISRDDSKNTAYLQMNNLKTEDTAVYYCVRHGNFGNSYVSWFAYWGQGTLVTVSAASTKGPSVFPLAPSSKSTSGGTAALGCLVKDYFPEPVTVSWNSGALTSGVHTFPAVLQSSGLYSLSSVVTVPSSSLGTQTYICNVNHKPSNTKVDKRVEPKSCDKTHTCPPCPAPEAAGGPSVFLFPPKPKDTLMISRTPEVTCVVVDVSHEDPEVKFNWYVDGVEVHNAKTKPREEQYNSTYRVVSVLTVLHQDWLNGKEYKCKVSNKALPAPIEKTISKAKGQPREPQVYTLPPSREEMTKNQVSLSCAVKGFYPSDIAVEWESNGQPENNYKTTPPVLDSDGSFFLVSKLTVDKSRWQQGNVFSCSVMHEALHNRFTQKSLSLSPG
notes: Heterodimer of one DLL3 chain and one CD3 chain (scFab-Fc, knob-in-hole)
B2: DLL3#10/CD3#1 (bispecific antibody, human IgG1, kappa, lambda, L234A L235A)
chain 1: EIVLTQSPGTLSLSPGERATLSCRASQSLNSIFLAWYQQKPGQAPWLLIYGASSRATGIPDRFSGSGSGTDFTLTISRLEPEDFAVYFCQQYGGSMNTFGQGTKLEIKRTVAAPSVFIFPPSDEQLKSGTASVVCLLNNFYPREAKVQWKVDNALQSGNSQESVTEQDSKDSTYSLSSTLTLSKADYEKHKVYACEVTHQGLSSPVTKSFNRGECGGGGSEGKSSGSGSESKSTEGKSSGSGSESKSTGGGGSQVQLVQSGAEVKKPGASVKVSCKASGYTFTGYYMHWVRLAPGQGLEWMGWINPNSGGTIFAQRFQGRVTMTRDTSISTVYMDLNRLRSDDTAVYYCARDFGDTVGNAFDIWGQGTMVTVSSASTKGPSVFPLAPSSKSTSGGTAALGCLVKDYFPEPVTVSWNSGALTSGVHTFPAVLQSSGLYSLSSVVTVPSSSLGTQTYICNVNHKPSNTKVDKRVEPKSCDKTHTCPPCPAPEAAGGPSVFLFPPKPKDTLMISRTPEVTCVVVDVSHEDPEVKFNWYVDGVEVHNAKTKPREEQYNSTYRVVSVLTVLHQDWLNGKEYKCKVSNKALPAPIEKTISKAKGQPREPQVYTLPPSREEMTKNQVSLWCLVKGFYPSDIAVEWESNGQPENNYKTTPPVLDSDGSFFLYSKLTVDKSRWQQGNVFSCSVMHEALHNHYTQKSLSLSPG
chain 2: B1 chain 2
notes: as for B1
B3: DLL3#12/CD3#1 (bispecific antibody, human IgG1, kappa, lambda, L234A L235A)
chain 1: QVVLTQSPAIMSASPGEKVTITCSASSSVTYIHWFQQNPGTSPKLWIYRTSYLASGVPARFSGSGSGTSYSLTISRMEAEDAATYYCQQRSSYPRTFGGGTKLEIKRTVAAPSVFIFPPSDEQLKSGTASVVCLLNNFYPREAKVQWKVDNALQSGNSQESVTEQDSKDSTYSLSSTLTLSKADYEKHKVYACEVTHQGLSSPVTKSFNRGECGGGGSEGKSSGSGSESKSTEGKSSGSGSESKSTGGGGSQVQLQQPGAEFVQPGSSVKMSCKASGYAFSDYWITWVKQRPGQGLEWIGDIYPGSGSTKSSEKFKNRATLTADTSSSTAYIQFSSLTPEDSAVYYCVSLYYYGSYYLDTWGQGTTLTVSSASTKGPSVFPLAPSSKSTSGGTAALGCLVKDYFPEPVTVSWNSGALTSGVHTFPAVLQSSGLYSLSSVVTVPSSSLGTQTYICNVNHKPSNTKVDKRVEPKSCDKTHTCPPCPAPEAAGGPSVFLFPPKPKDTLMISRTPEVTCVVVDVSHEDPEVKFNWYVDGVEVHNAKTKPREEQYNSTYRVVSVLTVLHQDWLNGKEYKCKVSNKALPAPIEKTISKAKGQPREPQVYTLPPSREEMTKNQVSLWCLVKGFYPSDIAVEWESNGQPENNYKTTPPVLDSDGSFFLYSKLTVDKSRWQQGNVFSCSVMHEALHNHYTQKSLSLSPG
chain 2: B1 chain 2
notes: as for B1

What was measured:
[1] = target: T8, trypsin inhibitor from glycine max soybean (Glycine max (soybean)); test: SPR (Biacore T200), trypsin inhibitor on CM5 chip, sample at 1 µM
T8 construct: also called Tryp
Description: To prepare the surface for the non-specific binding experiment, chicken egg white lysozyme and trypsin inhibitor from glycine max soybean were coupled manually to a series S CM5 chip with the surface density of 3000-5000 RU using the amine coupling kit according to the manufacture instructions.

Human CD3 E+G HuFc-6xHis = target: T9, Human CD3 E+G HuFc-6xHis (human); test: SPR (ProteOn XPR36), HuCD3E_HuCD3G-Fc amine-coupled, bispecific as analyte, Example 4B
T9 construct: also called hu CD3εγ-Fc
Summary of the method: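 Human CD3ε/γ-Fc fusion is amine-coupled to the chip at pH 4.5. Anti-DLL3/CD3 bispecifics are injected as analyte in PBS-T-EDTA at 30 μl/min, with 600 s association and 1800 s dissociation. Binding kinetics are measured by SPR.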

EGF1+2 [2] = target: T1, EGF1+2; test: flow cytometry on HEK293 cells expressing the DLL3 subdomain construct, PE anti-human secondary, control: secondary antibody only
Summary of the method: (§1)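 Binders tested on HEK293 cells displaying the DLL3 subdomain construct; bound molecules detected by flow cytometry using PE-conjugated anti-human secondary antibody. Negative control: cells with secondary antibody only.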

EGF2+3 = target: T2, EGF2+3; test: as above
Summary of the method: as §1

EGF5+6 = target: T3, EGF5+6; test: as above
Summary of the method: as §1

[3] = target: T4, EGF6+MEMBRANE PROXIMAL PEPTIDE; test: as above
Summary of the method: as §1

EGF4+5 [4] = target: T5, EGF4+5; test: flow cytometry on HEK293 cells expressing the DLL3 subdomain construct, 1.6 nM binder, PE anti-human secondary, control: secondary antibody only
Protocol: (§2) DLL3/CD3 binding proteins were produced by transient transfection of CHO-E cells with the pTT5 vectors carrying the chain-encoding genes, as described in Example 2. […] Bound molecules were detected with PE-conjugated anti-human secondary antibody (Sigma-Aldrich, #P8047). As negative control, cells were incubated with secondary antibody only.
(§3) The samples were measured by flow-cytometry. […] The sequences of the epitope domains are listed in Example 5, Table 3.

Human DLL3-His = target: T6, Human DLL3-His; test: SPR (ProteOn XPR36), bispecific captured on protein A/G, hu DLL3 as analyte, Example 4B
Protocol: The binding affinity of purified DLL3/CD3 bispecific constructs for recombinant human DLL3-ECD and Fc-fusion protein of human CD3 εγ subunits was determined by Surface Plasmon Resonance (SPR), using a ProteOn XPR36 instrument (Bio-Rad).
For binding kinetic determination to DLL3, anti-DLL3/CD3 molecules were captured individually on the protein A/G surface vertically for 200 sec at a flowrate of 30 μl/min. The baseline was stabilized by injecting PBS-T-EDTA for 60 sec at a flowrate of 30 μl/min horizontally. The analyte (hu DLL3) was injected horizontally over the captured antibody for 300 sec at a flowrate of 30 μl/min and a dissociation for 1800 sec.

EGF3+4 = target: T7, EGF3+4; test: flow cytometry on HEK293 cells expressing the DLL3 subdomain construct, PE anti-human secondary, control: secondary antibody only
Summary of the method: as §1

EGF4+5 [5] = target: T5, EGF4+5; test: as above
Summary of the method: as §1

EGF1+2 [6] = target: T1, EGF1+2; test: flow cytometry on HEK293 cells expressing the DLL3 subdomain construct, 1.6 nM binder, PE anti-human secondary, control: secondary antibody only
Protocol: as §2, §3

T8 sequence (P01070 25-205): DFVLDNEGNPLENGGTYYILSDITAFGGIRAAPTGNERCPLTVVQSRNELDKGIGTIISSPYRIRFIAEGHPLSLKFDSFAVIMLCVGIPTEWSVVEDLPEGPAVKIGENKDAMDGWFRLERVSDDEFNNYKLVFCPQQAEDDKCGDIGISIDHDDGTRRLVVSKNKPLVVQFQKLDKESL
T9 sequence (chain, as listed by the source limits assumed): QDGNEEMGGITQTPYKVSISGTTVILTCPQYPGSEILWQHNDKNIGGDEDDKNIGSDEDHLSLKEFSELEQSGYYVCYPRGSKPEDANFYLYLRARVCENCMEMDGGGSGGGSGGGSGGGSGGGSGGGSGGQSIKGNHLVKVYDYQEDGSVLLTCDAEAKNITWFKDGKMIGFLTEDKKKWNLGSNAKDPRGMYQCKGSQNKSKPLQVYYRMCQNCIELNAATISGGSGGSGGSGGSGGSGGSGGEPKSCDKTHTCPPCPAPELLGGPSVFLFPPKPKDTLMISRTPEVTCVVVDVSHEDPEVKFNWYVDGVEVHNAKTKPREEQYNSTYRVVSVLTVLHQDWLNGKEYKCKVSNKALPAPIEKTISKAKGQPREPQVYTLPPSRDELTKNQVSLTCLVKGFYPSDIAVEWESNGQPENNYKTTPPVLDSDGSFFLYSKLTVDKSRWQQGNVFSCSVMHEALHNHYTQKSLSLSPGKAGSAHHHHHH

| Binder | Non-specific binding (RU) [1] | Kd (Human CD3 E+G HuFc-6xHis) | binding result (EGF1+2 [2]) | binding result (EGF2+3) | binding result (EGF5+6) | binding result [3] | binding result (EGF4+5 [4]) | Kd (Human DLL3-His) | binding result (EGF3+4) | binding result (EGF4+5 [5]) | binding result (EGF1+2 [6]) |
| --- | --- | --- | --- | --- | --- | --- | --- | --- | --- | --- | --- |
| B1 | 18 RU | 2 nM | no binding (tested: 1.6 nM) | no binding (tested: 1.6 nM) | no binding (tested: 1.6 nM) | no binding (tested: 1.6 nM) | binds |  |  |  |  |
| B2 | 12 RU |  |  | no binding (tested: 1.6 nM) | no binding (tested: 1.6 nM) | no binding (tested: 1.6 nM) |  | 0.141 nM | no binding (tested: 1.6 nM) | no binding (tested: 1.6 nM) | binds |
| B3 | 9 RU | 2 nM |  | no binding (tested: 1.6 nM) | no binding (tested: 1.6 nM) | no binding (tested: 1.6 nM) |  | < 0.02 nM | no binding (tested: 1.6 nM) | no binding (tested: 1.6 nM) | binds |
